The results in this text go back to patent US20230067770A1 (SHANGHAI HENLIUS BIOTECH, published 2023).

Assay [1] concerns the target T1, human-CD137 (ELISA antigen of the affinity maturation screen) (human, UniProt Q07011 24-186, limits assumed).
T1 construct: also called human-CD137 ECD
The experiment in a line: ELISA of Fab in supernatants after phage panning. (An ELISA detects its analyte on a solid surface through an enzyme-linked reagent.)

Assay [2] has as its target T2, human CD137-Fc fusion protein (human, UniProt Q07011 24-186, limits assumed).
T2 construct: also called huCD137
The experiment in a line: ELISA, hybridoma supernatant on plates coated with human CD137-Fc fusion protein. As for the experimental part: Hybridoma screening. Detection of binding to huCD137 by ELISA: To identify hybridomas secreting anti-human CD137 antibodies, ELISA plates (Corning) were coated with human CD137-Fc fusion protein at 1 μg/ml in PBS overnight at 4° C. […] Thirty microliters of supernatants diluted 1:3 in PBS were added to the plates and incubated for 1-2 hour at ambient temperature. Afterwards, the plates were washed as before, and binding of antibodies was detected through Horseradish peroxidase (HRP)-conjugated goat F(ab′)2 anti-human IgG. The plates were developed with TMB and read at 450 nm.

In assay [3] the target is T3, Human CD137-his (human, UniProt Q07011 24-186).
T3 construct: Bought reagent; also called Human CD137-His (Sino Biological, 10041-H08H)
The experiment in a line: BLI (Octet), third comparison, antibody captured on AHC sensor. The procedure: (§1) Biolayer interferometry was used to measure the association and dissociation constants for the binding kinetics of the anti-CD137 antibodies. The binding kinetics was measured on a FortieBio Octet Red 96 at 30° C. and analyzed with the FortieBio Data Analysis 9.0 software. Anti-human-IgG Fc (AHC) sensor was used to capture the anti-CD137 antibodies or control antibodies. A kinetic buffer only well was set as a reference well for subtraction during data processing. Data were fitted with a 1:1 Langmuir model for association and dissociation using Rmax linked global fitting for each antibody-antigen binding. Human CD137-his is a recombinant CD137 antigen with a poly histidine tag fused to C-terminus of human CD137 antigen (Sino Biological, 10041-H08H). Cyno CD137-his is a recombinant CD137 antigen with a poly histidine tag fused to C-terminus of cynomolgus CD137 antigen (Sino Biological, 90847-K02H-100).

In assay [4] the target is T3, Human CD137-his. The experiment in a line: BLI (Octet), second round, antibody captured on AHC sensor. The procedure:
as §1
For orientation: BLI is a label-free optical method that tracks binding on a fibre tip over time.

B1: Clone 23 (Fab in supernatant) (Fab, V domains shown)
VH: QVQLVQSGAEVKKPGASVKVSCKASGFNIKDTYIHWVRQAPGQGLEWMGKIDPANGQTEYAQKFQGRVTMTRDTSTSTVYMELSSLRSEDTAVYYCTTGNLHYALMDYWGQGTSVTVSS
VL: DIQMTQSPSSVSASVGDRVTITCKASQAINTYLSWYQQKPGKAPKLLIYRANRMVGGVPSRFSGSGSGTDFTLTISSLQPEDFATYYCLQYRDFPYTFGGGTKLEIKR
notes: Screened as Fab in supernatant
Take B1: in assay [1], the binding result was “binds”.

B2: Clone 18 (Fab in supernatant) (Fab, V domains shown)
VH: QVQLVQSGAEVKKPGASVKVSCQASGFNIKDTYIHWVRQAPGQGLGWMGKIDPANGMTEYAQKFQGRVTVTRDTSTSTVYMELSSLRSEDTAVYYCTTGNLHYALMDYWGQGTSVTVSS
VL: DIQMTQSPSSVSASVGDRVTITCKASQAPNTYLSWYQQKPGKAPKLLIYRANRMVDGVPSRFSGSGSGTDFTLTISSLQPEDFATYYCLQYEDFPYTFGGGTKLEIKR
notes: as for B1
With B2, the binding result in assay [1] is reported as “binds”.

B3: Clone 19 (Fab in supernatant) (Fab, V domains shown)
VH: QVQLVQSGAEVKKPGASVKVSCKASGFNMKDTYIHWVRQAPGQGLEWMGKIDPANGATEYAQKFQGRVTMTRDTSTSTVYMELSSLRSEDTAVYYCTTGNLHYGLMDYWGQGTSVTVSS
VL: DIQMTQSPSSVSASVGDRVTITCKASQAINTYLSWYQQKPGKAPKLLIYRANRMGDGVPSRFSGSGSGTDFTLTISSLQPEDFATYYCLQSDDFPYTFGGGTKLEIKR
notes: as for B1
Regarding B3, in assay [1], the binding result was “binds”.

B4: Clone 2-11 (Fab in supernatant) (Fab, V domains shown)
VH: QVQLVQSGAEVKKPGASVKVSCKASGFNIKDTYIHWVRQAPGQGLEWMGKIDPANGGTEYAQKFQGRVTMTRDTSTSTVYMELSSLRSEDTAVYYCTTGNLHYALMDYWGQGTSVTVSS
VL: DIQMTQSPSSVSASVGDRVTITCKASQPINTYLSWYQQKPGKAPKLLIYRVNRKVDGVPSRFSGSGSGTDFTLTISSLQPEDFATYYCLQYVDFPYTFGGGTKLEIKR
notes: as for B1
As for B4, the binding result in assay [1] is “binds”.

B5: Clone 3 (Fab in supernatant) (Fab, V domains shown)
VH: QVQLVQSGAEVKKPGASVKVSCKASGFNPKDTYIHWVRQAPGQGLEWMGRIDPANGFTEYAQKFQGRVTMTRDTSTSTVYMELSSLRSEDTAVYYCTTGNLHYALMDYWGQGTSVTVSS
VL: DIQMTQSPSSVSASVGDRVTITCKASQAINTYLSWYQQKPGKAPKLLIYRANRMVDGVPSRFSGSGSGTDFTLTISSLQHEDFATYYCLQSDDFPYTFGGGTKLEIKR
notes: Screened as Fab in SS320 culture supernatant
With B5, the binding result in assay [1] was “binds”.

B6: Clone 9 (Fab in supernatant) (Fab, V domains shown)
VH: QVQLVQSGAEVKKPGASVKVSCKASGFNLKDTYIHWVRQAPGQGLEWMGKIDPANGNTEYAQKFQGRVTMTRDTSTSTVYMELSSLRSEDTAVYYCTTGNLHYALMDYWGQGTSVTVSS
VL: DIQMTQSPSSVSASVGDRVTITCKASQAIATYLSWYQQKPGKAPKLLIYRANRMYDGVPSRFSGSGSGTDFTLTISSLQPEDFATYYCLQFDDFPYTFGGGTKLEIKR
notes: as for B1
As to B6, the binding result in assay [1] was “binds”.

B7: Clone 20 (Fab in supernatant) (Fab, V domains shown)
VH: QVQLVQSGAEVKKPGASVKVSCKASGFNMKDTYIHWVRQAPGQGLEWMGKIDPANGDTEYAQKFQGRVTMTRDTSTSTVYMELSSLRSEDTAVYYCTTGNLHYALMDYWGQGTSVTVSS
VL: DIQMTQSPSSVSASVGDRVTITCKASQAINTYLSWYQQKPGKAPKLLIYRANRAVDGVPSRFSGSGSGTDFTLTISSLQPEDFATYYCLQYLDFPYTFGGGTKLEIKR
notes: as for B1
As for B7, the binding result in assay [1] is “binds”.

B8: Clone 33 (Fab in supernatant) (Fab, V domains shown)
VH: QVQLVQSGAEVKKPGASVKVSCKASGFNIKDTYIQWVRQAPGQGLEWMGKIDPANGNTMYAQKFQGRVTMTRDTSTSTVYMELSSLRSEDTAVYYCTTGNLHYALMDYWGQGTSVTVSS
VL: DIQMTQSPSSVSASVGDRVTITCKASQTINTYLSWYQQKPGKAPKLLIYRANRMPDGVPSRFSGSGSGTDFTLTISSLQPEDFATYYCLQYDDFPYTFGGGTKLEIKR
notes: as for B1
Regarding B8, in assay [1], the binding result is “binds”.

B9: Clone 25 (Fab in supernatant) (Fab, V domains shown)
VH: QVQLVQSGAEVKKPGASVKVSCKASGFNIQDTYIHWVRQAPGQGLEWMGRIDPANGNSEYAQKFQGRVTMTRDTSTSTVYMELSSLRSEDTAVYYCTTGNLHYGLMDYWGQGTSVTVSS
VL: DIQMTQSPSSVSASVGDRVTITCKASQAINTYLSWYQQKPGKAPKLLIYRDNRKVDGVPSRFSGSGSGTDFTLTISSLQPEDFATYYCLQYQDFPYKFGGGTKLEIKR
notes: as for B1
Turning to B9, the binding result in assay [1] is given as “binds”.

B10: Clone 5 (Fab in supernatant) (Fab, V domains shown)
VH: QVQLVQSGAEVKKPGASVKVSCKASGFNIRDTYIHWVRQAPGQGLEWMGKIDPANGNTEYAQKFQGRVTMTRDTSTSTVYMELSSLRSEDTAVYYCTTGNLHYGLMDYWGQGTSVTVSS
VL: DIQMTQSPSSVSASVGDRVTITCKASQAINTYHSWYQQKPGKAPKLLIYRVNRMVDGVPSRFSGSGSGTDFTLTISSLQPEDFATYYCLQYLDFPYTFGGGTKLEIKR
notes: as for B1
With B10, the binding result in assay [1] was “binds”.

B11: Clone 35 (Fab in supernatant) (Fab, V domains shown)
VH: QVQLVQSGAEVKKPGASVKVSCKASGFNINDTYIHWVRQAPGQGLEWMGRIDPANGYTEYAQKFQGRVTMTRDTSTSTVYMELSSLRSEDTAVYYCTTGNLHYALMDYWGQGTSVTVSS
VL: DIQMTQSPSSVSASVGDRVTITCKASQAIATYLSWYQQKPGKAPKLLIYRANRMVDGVPSRFSGSGSGTDFTLTISSLQPEDFATYYCLQFQDFPYTFGGGTKLEIKR
notes: as for B1
For the molecule B11, the binding result in assay [1] was “binds”.

B12: hybridoma anti-CD137 antibody clone 6.62 (antibody, V domains shown)
VH: QIQLVQSGPELKKPGETVKISCKASGYSFTDYSIHWVKQAPGKGLKWMGWMNTETGEPAYADDFKGRFAFSLETAASTAYLQINHLRDEDTATYFCTRSSYGYFDYWGQGTTLTVSS
VL: DVVMTQTPLSLPVSLGDQAAISCRSSQTLEHINGNTYLEWYLQKPGQSPKLLIYKVSDRFSGVPDRFSGSGSGTGFTLKISRVEAEDLGVYYCFQGSHFPLTFGGGTKLELK
notes: Tested as hybridoma supernatant
With B12, the binding result in assay [2] is recorded as “binds”.

B13: hybridoma anti-CD137 antibody clone 3.10 (antibody, V domains shown)
VH: EVQLVESGPGLVAPSQSLSITCTVSGFSLTTYDVSWIRQPPGKGLEWLGVIWTGGGTNYNSTFMSRLTISKDNSKNQVFLKMNSLQTDDTATYYCVRVDYWGQGTTLTVSR
VL: DVVMTQTPLSLPVSLGGHASISCRSSQSLVHNNGNTYLHWFLQKPGQSPKLLIYKVSNRFSGVPDRFSGSGSGTDFTLKISRVEAEDLGVYFCSQNAHVPWTFGGGTKLEIKR
notes: as for B12
As to B13, the binding result in assay [2] is given as “binds”.

B14: hybridoma anti-CD137 antibody clone 29.39 (antibody, V domains shown)
VH: EVKLMESGAELVKPGASVKLSCTASGFNIKDTYIHWVKQRPEQGLEWIGKIDPANGNTEYDLNFQGRATITADTSSNTAYLQLSSLTSEDTAVYYCTTGNLHYYLMDYWGQGTSVTSLE
VL: DIVMTQSPSSMYASLGERVTITCKASQAINTYLSWFQQKPGKSPKTLIYRANRMVDGVPSRFSGSGSGQDYSLTISSLDYEDMGIYYCLQYDDFPYTFGGGTKLEIKR
notes: as for B12
On to B14, for which the binding result in assay [2] is on record as “binds”.

B15: hybridoma anti-CD137 antibody clone 44.21 (antibody, V domains shown)
VH: EVKLMESGAELVKPGASVKLSCTASGFNIKDTYIHWVKQRPEQGLEWIGKIDPANGNTEYDLNFQGRATITADTSSNTAYLQLSSLTSEDTAVYYCTTGNLHYYLMDYWGQGTSVTSLE
VL: DIVMTQTPLSLPVSLGDHASISCRSSQSLVHSNGNTYLHWFLQKPGQSPKLLIYKVSNRFSGVPDRFSGSGSGTDFTLKISRVEAEDLGVYFCSQNAHVPWTFGGGTKRKSNE
notes: as for B12
Consider B15, for which, in assay [2], the binding result is “binds”.

B16: hybridoma anti-CD137 antibody clone 30.19 (antibody, V domains shown)
VH: QIQLVQSGPELKKPGETVKISCKASGYSFTDYSIHWVKQAPGKGLKWMGWMNTETGEPAYADDFKGRFAFSLETAASTAYLQINHLRDEDTATYFCTRSSYGYFDYWGQGTTLTVSS
VL: DIVMTQSPSSMYASLGERVTITCKASQAINTYLSWFQQKPGKSPKTLIYRANRMVDGVPSRFSGSGSGQDYSLTISSLDYEDMGIYYCLQYDDFPYTFGGGTKLEIKR
notes: as for B12
In the case of B16, the binding result in assay [2] was “binds”.

B17: 2-9-1 IgG1 SELF (antibody)
heavy: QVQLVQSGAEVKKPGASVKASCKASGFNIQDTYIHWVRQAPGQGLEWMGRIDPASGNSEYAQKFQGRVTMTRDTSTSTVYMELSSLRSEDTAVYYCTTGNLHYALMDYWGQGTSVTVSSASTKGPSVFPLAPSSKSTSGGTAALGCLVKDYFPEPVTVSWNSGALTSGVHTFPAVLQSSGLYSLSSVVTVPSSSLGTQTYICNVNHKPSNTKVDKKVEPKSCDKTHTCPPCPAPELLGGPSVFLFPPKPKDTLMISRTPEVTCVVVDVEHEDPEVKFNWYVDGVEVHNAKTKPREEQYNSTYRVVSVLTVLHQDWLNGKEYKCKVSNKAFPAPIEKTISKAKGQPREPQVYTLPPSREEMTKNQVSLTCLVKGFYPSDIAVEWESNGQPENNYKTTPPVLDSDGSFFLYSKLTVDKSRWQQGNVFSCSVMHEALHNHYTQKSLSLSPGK
light: DIQMTQSPSSVSASVGDRVTITCKASQPINTYLSWYQQKPGKAPKLLIYRVNRKVDGVPSRFSGSGSGTDFTLTISSLQPEDFATYYCLQYLDFPYTFGGGTKLEIKRTVAAPSVFIFPPSDEQLKSGTASVVCLLNNFYPREAKVQWKVDNALQSGNSQESVTEQDSKDSTYSLSSTLTLSKADYEKHKVYACEVTHQGLSSPVTKSFNRGEC
notes: Subclone of 2-9 with an IgG1 Fc carrying S267E/L328F; also called clone 2-9-1 IgG1 SELF; Clone 2-9 IgG1 SELF
What is called Kd is the equilibrium constant for the complex coming apart. A higher Kd goes with lower affinity. One may read the koff as the rate constant with which the complex falls apart. A high value points to fast dissociation. Usually kon stands for the rate constant with which the complex forms. The low end stands for slow association, the high end for fast association. In assay [3], B17 showed a Kd of 11.1 nM, a koff of 0.0006 s⁻¹ and a kon of 54100 M⁻¹ s⁻¹. Besides, in assay [4], the Kd amounted to 6.55 nM, the koff was 0.00034 s⁻¹ and the kon was determined as 52000 M⁻¹ s⁻¹.

B18: 2-9-2 IgG4 (antibody)
heavy: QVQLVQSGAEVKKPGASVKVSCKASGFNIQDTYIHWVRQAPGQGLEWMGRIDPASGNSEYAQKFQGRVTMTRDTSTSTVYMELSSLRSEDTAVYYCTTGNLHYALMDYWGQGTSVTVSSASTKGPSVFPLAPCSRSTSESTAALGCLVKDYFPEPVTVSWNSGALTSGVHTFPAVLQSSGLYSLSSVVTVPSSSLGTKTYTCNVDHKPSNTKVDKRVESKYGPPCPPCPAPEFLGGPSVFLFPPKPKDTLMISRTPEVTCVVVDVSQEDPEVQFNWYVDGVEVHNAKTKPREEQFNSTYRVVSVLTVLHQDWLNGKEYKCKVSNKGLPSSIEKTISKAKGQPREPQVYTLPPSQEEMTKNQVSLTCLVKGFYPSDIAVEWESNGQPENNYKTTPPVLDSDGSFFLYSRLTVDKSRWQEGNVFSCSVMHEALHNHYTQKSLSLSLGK
light: DIQMTQSPSSVSASVGDRVTITCKASQPINTYLSWYQQKPGKAPKLLIYRVNRKVDGVPSRFSGSGSGTDFTLTISSLQPEDFATYYCLQYLDFPYTFGGGTKLEIKRTVAAPSVFIFPPSDEQLKSGTASVVCLLNNFYPREAKVQWKVDNALQSGNSQESVTEQDSKDSTYSLSSTLTLSKADYEKHKVYACEVTHQGLSSPVTKSFNRGEC
notes: Subclone of 2-9; also called clone 2-9-2 IgG4 wt
In assay [3], B18 came in with a Kd of 12.9 nM, a koff of 0.000801 s⁻¹ and a kon of 62200 M⁻¹ s⁻¹.
